US9745384B2, “Peptides useful for modulating histone demethylase function” (The Brigham and Women's Hospital, Inc., priority 2012, dated 2017)

Columns and labels:
LSD1 = LSD1 (Homo sapiens, UniProt O60341); test: LSD1-mediated nucleosome demethylation assay; type: biochemical; conditions: 2 μg LSD1 with 5 μg cofactor protein
Protocol: (§1) FIG. 7A depicts the determination of the threshold dosage of purified LSD2 required for nucleosomal H3K4 demethylation. 2 μg of nucleosomes purified from HeLa were incubated with various amount of His-LSD2 proteins for 2 hours at 30° C. The demethylation reactions were analyzed by immunoblotting using indicated antibodies. […] 2 μg LSD1 in combination with 5 μg purified NPAC or CoREST protein was used for histone demethylase assays. […] Transfected cells are marked by arrows; cells shown significant reduction of H3K4me1 are marked by dotted circles. […] In contrast, coexpression of LSD2 and NPAC induces obvious global decrease of H3K4me1. […] FIG. 7D depicts immunofluorescence analyses of H3K9me2 demethylation in cells coexpressing LSD2 and full-length NPAC.

[1] = tested on: CCND1 and CCNE1 expression; test: CCND1 and CCNE1 expression in breast cancer cells; type: cell-based; conditions: stable MDA-MB-231 cell lines, shRNA-resistant cDNA
Source text: We first established stable MDA-MB-231 cell lines that express similar levels of the mutant or the wild-type full-length NPAC from cDNAs introduced with silent mutations and resistant to NPAC shRNA (data not shown). […] Thus, mutation of the LSD2-interacting residues F218, L219 and L291 of NPAC can disrupt LSD2 and NPAC functions in vivo.
We next examined if it is possible to use a small molecule to manipulate the interaction between NPAC and LSD2, thus affecting target gene expression. We have shown that a short mutant NPAC peptide (residues 214-225) can interact with LSD2 with high affinity, however, lost its cofactor activity. NPAC214-225.F217A is expected to be able to competitive inhibit the interaction between endogenous NPAC and LSD2, without stimulating LSD2 demethylase activity (FIG. 25A, right). […] Thus, unable to stimulate the histone demethylase activity of endogenous LSD2, this mutant peptide is a potent inhibitor of LSD2 function by competitively inhibiting LSD2 binding by endogenous NPAC.

LSD2 = target: T1, LSD2 (Homo sapiens, UniProt Q8NB78); test: Immunofluorescence of histone methylation in cells coexpressing LSD2 and NPAC; type: cell-based; set-up: expressed in transfected cells; host or cells: U2OS
T1 sequence (Q8NB78 1-822): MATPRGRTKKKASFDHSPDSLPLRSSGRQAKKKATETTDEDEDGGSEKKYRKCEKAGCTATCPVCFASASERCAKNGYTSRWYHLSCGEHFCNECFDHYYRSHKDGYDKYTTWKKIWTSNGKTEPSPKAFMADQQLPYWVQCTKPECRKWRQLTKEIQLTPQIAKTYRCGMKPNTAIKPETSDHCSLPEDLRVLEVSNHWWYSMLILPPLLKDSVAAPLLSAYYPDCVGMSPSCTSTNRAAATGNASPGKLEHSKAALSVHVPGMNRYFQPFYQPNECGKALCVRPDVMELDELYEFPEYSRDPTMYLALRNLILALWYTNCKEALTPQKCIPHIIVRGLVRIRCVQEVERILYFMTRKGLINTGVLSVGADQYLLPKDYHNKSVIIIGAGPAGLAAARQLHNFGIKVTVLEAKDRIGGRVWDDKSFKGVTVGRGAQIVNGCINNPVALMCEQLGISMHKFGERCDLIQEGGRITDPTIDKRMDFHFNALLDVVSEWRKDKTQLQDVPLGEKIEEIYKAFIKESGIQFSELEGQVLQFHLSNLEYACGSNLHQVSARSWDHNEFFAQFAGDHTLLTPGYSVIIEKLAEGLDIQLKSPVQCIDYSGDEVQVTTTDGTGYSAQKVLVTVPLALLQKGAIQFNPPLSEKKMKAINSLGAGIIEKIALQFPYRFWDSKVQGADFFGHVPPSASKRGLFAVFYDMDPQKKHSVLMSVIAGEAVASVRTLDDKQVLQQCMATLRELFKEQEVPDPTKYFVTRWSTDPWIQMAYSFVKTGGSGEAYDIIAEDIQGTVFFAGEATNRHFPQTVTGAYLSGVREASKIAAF
Protocol: FIG. 1A depicts a schematic of NPAC domain structure. AT, AT-hook motif. PWWP, Pro-Trp-Trp-Pro domain (SEQ ID NO: 63). […] Tandem affinity purified NPAC and LSD2 complexes were incubated with nucleosomes purified from HeLa, and analyzed by immunoblot using indicated antibodies. […] The amount of LSD2 enzyme and NPAC cofactor proteins used in each reaction is indicated. Demethylation was assessed by Immunoblot using indicated antibodies. […] Representatives with similar levels of GFP-LSD2 are shown. See also FIGS. 7A-7D.
as §1

His-LSD2 = target: T2, His-LSD2 (Homo sapiens, UniProt Q8NB78); test: Nucleosome demethylation assay (NPAC cofactor activity for LSD2, immunoblot); type: biochemical; conditions: for Cofactor activity: stimulation of LSD2 demethylation of nucleosomal H3K4me2: threshold dosage of His-LSD2, nucleosomes purified from HeLa
T2 construct: typically 0.5 μg full-length His-LSD2; made in house; host or cells: Sf9 insect cells
T2 sequence (Q8NB78 1-822): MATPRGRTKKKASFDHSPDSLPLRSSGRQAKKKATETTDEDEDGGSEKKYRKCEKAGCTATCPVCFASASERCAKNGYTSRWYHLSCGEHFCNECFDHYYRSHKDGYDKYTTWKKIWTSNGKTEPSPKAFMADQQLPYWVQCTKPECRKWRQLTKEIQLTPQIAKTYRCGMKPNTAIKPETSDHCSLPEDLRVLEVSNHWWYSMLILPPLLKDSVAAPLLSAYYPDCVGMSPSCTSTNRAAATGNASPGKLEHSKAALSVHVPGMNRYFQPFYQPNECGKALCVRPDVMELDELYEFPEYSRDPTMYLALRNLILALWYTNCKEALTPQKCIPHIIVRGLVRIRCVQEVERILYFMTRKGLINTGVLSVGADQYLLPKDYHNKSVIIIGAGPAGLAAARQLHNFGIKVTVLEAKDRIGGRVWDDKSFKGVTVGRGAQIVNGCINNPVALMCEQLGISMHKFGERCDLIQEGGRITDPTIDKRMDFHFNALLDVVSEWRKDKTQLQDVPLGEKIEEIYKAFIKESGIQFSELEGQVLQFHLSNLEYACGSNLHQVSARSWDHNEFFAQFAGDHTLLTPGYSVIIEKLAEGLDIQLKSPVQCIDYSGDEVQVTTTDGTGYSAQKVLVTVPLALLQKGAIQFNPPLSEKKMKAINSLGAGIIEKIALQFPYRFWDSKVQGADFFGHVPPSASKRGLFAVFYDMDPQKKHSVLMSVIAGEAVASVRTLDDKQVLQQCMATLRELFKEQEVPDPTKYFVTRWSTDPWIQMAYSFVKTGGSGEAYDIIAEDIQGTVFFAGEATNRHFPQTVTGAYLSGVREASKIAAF
Protocol: For nucleosome demethylation assays, typically 0.5 μg full-length His-LSD2, 1 μg NPAC protein or peptides, and 2 μg nucleosomes purified from HeLa were used, and demethylation efficiency was analyzed by SDS-PAGE electrophoresis and immunoblot using methylation specific anti-histone H3 antibodies as previously described (Shi et al. 2004).

Change of H3K9me2 and other histone marks in cells (LSD2; coexpression of NPAC and LSD2): no detectable changes
Cofactor activity: stimulation of LSD2 demethylation of nucleosomal H3K4me2 (His-LSD2; listed as wild-type NPAC): robust activity
B1: NPAC: full-length human NPAC/GLYR1 (protein ID: Q49A26), recombinant, LSD2 cofactor (protein)
chain: MAAVSLRLGDLVWGKLGRYPPWPGKIVNPPKDLKKPRGKKCFFVKFFGTEDHAWIKVEQLKPYHAHKEEMIKINKGKRFQQAVDAVEEFLRRAKGKDQTSSHNSSDDKNRRNSSEERSRPNSGDEKRKLSLSEGKVKKNMGEGKKRVSSGSSERGSKSPLKRAQEQSPRKRGRPPKDEKDLTIPESSTVKGMMAGPMAAFKWQPTASEPVKDADPHFHHFLLSQTEKPAVCYQAITKKLKICEEETGSTSIQAADSTAVNGSITPTDKKIGFLGLGLMGSGIVSNLLKMGHTVTVWNRTAEKCDLFIQEGARLGRTPAEVVSTCDITFACVSDPKAAKDLVLGPSGVLQGIRPGKCYVDMSTVDADTVTELAQVIVSRGGRFLEAPVSGNQQLSNDGMLVILAAGDRGLYEDCSSCFQAMGKTSFFLGEVGNAAKMMLIVNMVQGSFMATIAEGLTLAHVTGQSQQTLLDILNQGQLASIFLDQKCQNILQGNFKPDFYLKYIQKDLRLAIALGDAVNHPTPMAAAANEVYKRAKALDQSDNDMSAVYRAYIH
Stimulation of LSD1 nucleosome demethylation (LSD1): no stimulatory effect on nucleosome demethylation by LSD1
Rescue of CCND1 and CCNE1 down regulation caused by NPAC shRNA [1]: prevents down regulation of CCND1 and CCNE1 by NPAC shRNA
Depletion of di- and mono-methylated H3K4 in cells (LSD2; coexpression of NPAC and LSD2 vs LSD2 alone, U2OS): much more pronounced depletion of di- and mono-methylated H3K4 in cells than expressing LSD2 alone
Demethylase activity of NPAC itself (His-LSD2; NPAC alone, without LSD2): no demethylase activity
Cofactor activity: stimulation of LSD2 demethylation of nucleosomal H3K4me2 (His-LSD2; listed as His-NPAC): stimulated LSD2 activity in a dose-dependent manner
